Results from PMC12062419 (2025).

Target: T1, human migfilin (residues 1-85) Ser12His (human, UniProt Q8WUP2 1-85, Ser12His)
T1 sequence: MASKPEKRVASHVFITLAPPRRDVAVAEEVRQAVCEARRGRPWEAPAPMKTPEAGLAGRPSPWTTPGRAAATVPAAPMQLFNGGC
Experiment: NMR

B1: GST-tagged human filamin A domain 21 (FLNa21) labelled with 4-trifluoromethyl-L-phenylalanine at position 2274 (domain or fragment)
chain: GGAHKVRAGGPGLERAEAGVPAEFSIWTREAGAGGLAIFVEGPSKAEISFEDRKDGSCGVAYVVQEPGDYEVSVKFNEEHIPDSPFVVPVASP
modifications: 4-trifluoromethyl-L-phenylalanine (tfmF) at position 2274
Kd: 4.9 µM
